The values below come from patent publication US20210171621A1 (SUNSHINE GUOJIAN PHARMACEUTICAL SHANGHAI, published 2021).

Numbering of substitutions follows the chain as printed.

The term Kd denotes the free concentration of one partner at which half of the binding sites on the other are occupied at equilibrium, for simple one-to-one binding. The koff is a measure of how fast the partners let go of each other. A higher koff goes with a short-lived complex. The kon is the rate constant with which the complex forms. Lower therefore signals slow association. By IC50 is commonly meant the concentration that gives 50% inhibition. Low readings indicate inhibition by little substance, high ones a need for much substance. Broadly, the EC50 is the concentration that produces a half-maximal response. Low readings indicate greater potency, high ones weaker potency.

Test [1] addresses T1, human IL-5 protein (purchased from Beijing Yiqiao Shenzhou) (human, UniProt P05113 20-134). In words: cell-based or functional assay.
The target of test [2] is T1, human IL-5 protein (purchased from …). In words: SPR Biacore T200, antibody captured on Protein A/G, IL-5 as analyte. From the text: The specific experimental method was as follows: A CM5 sensor chip (GE healthcare) was activated with a Amine Coupling Kit (GE healthcare) and the Protein A/G fusion protein (Thermo Pierce) was immobilized on the chip with an lable amount of 2000 RU. FC3 (Flow cell 3) was a reference channel, and FC4 (Flow cell 4) was a sample channel.
(In SPR one partner is held on a chip, and binding of the other changes the refractive index at the surface.)

Test [3] concerns the target T2, human IL-5-hFc (human, UniProt P05113 20-134).
T2 construct: not shown: Fc segment of human IgG1
In words: competition ELISA: IL-5-hFc coated, biotinylated IL-5RA-ECD-hFc as competitor. Here is the method:
(§1) After incubation for a period of time, the plate was washed and Streptavidin-HRP was added finally for color development detection.
Background: An ELISA detects its analyte on a solid surface through an enzyme-linked reagent.

A further test concerns the target T3, rat IL-5 with His-tag (rat, UniProt Q08125 20-132).
T3 construct: Expressed transiently in HEK293E and captured from the supernatant by a murine anti-His antibody; not shown: His-tag
T3 sequence (looked up): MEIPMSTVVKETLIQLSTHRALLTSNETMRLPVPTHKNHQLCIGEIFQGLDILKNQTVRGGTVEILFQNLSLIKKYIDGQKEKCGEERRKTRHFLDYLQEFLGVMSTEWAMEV
Briefly: ELISA, His-tagged IL-5 captured by anti-His antibody; rat. The source says: (§2) IL-5 genes of rat, mouse, guinea pig and rabbit were synthesized and constructed into the pTT5 transient vector, respectively (All the sequences of the above genes are from http://www.uniprot.org, the mouse number is P04401, the rat number is Q08125, the guinea pig number is O08987, and the rabbit number is G1SL79), and then transiently expressed in HEK293E.

Test [4] addresses T4, human IL-5-His-tag antigen (human, UniProt P05113 20-134).
T4 construct: Made in HEK293
Briefly: ELISA, His-tagged IL-5 captured by anti-His antibody; human.

A further test deals with T5, mouse IL-5 with His-tag (mouse, UniProt P04401 21-133).
T5 construct: Expressed transiently in HEK293E and captured from the supernatant by a murine anti-His antibody; not shown: His-tag
T5 sequence (looked up): T3 sequence (looked up) with I14T, T18A, I65M, G79R, K90R, H93Q, V113G
In words: ELISA, His-tagged IL-5 captured by anti-His antibody; mouse.
Source text: as §2

Test [5] concerns the target T6, guinea pig IL-5 with His-tag (guinea pig, UniProt O08987 20-135).
T6 construct: Expressed transiently in HEK293E and captured from the supernatant by a murine anti-His antibody; not shown: His-tag
T6 sequence (looked up): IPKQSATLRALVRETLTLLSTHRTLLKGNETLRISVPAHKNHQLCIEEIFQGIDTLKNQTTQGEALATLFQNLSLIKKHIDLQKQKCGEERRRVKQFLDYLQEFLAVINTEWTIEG
In words: ELISA, His-tagged IL-5 captured by anti-His antibody; guinea pig.
Source text: as §2

For test [6], the target named is T7, IL-5 mutant 86C to Alanine, with His-tag (human, UniProt P05113 20-134).
T7 construct: Expressed transiently in HEK293E; used from the supernatant, captured by a murine anti-His antibody; not shown: His-tag
In words: capture ELISA: His-tagged IL-5 from HEK293E supernatant captured with murine anti-His antibody, detected with Goat-anti-Human-Fc-Specific-HRP; mean of four wells.

In test [7] the target is T8, IL-5 mutant 90R to Alanine, with His-tag (human, UniProt P05113 20-134).
T8 construct: Expressed transiently in HEK293E; used from the supernatant, captured by a murine anti-His antibody; not shown: His-tag
Described as above.

Test [8] deals with T9, IL-5 mutant 91R to Alanine, with His-tag (human, UniProt P05113 20-134).
T9 construct: Expressed transiently in HEK293E; used from the supernatant, captured by a murine anti-His antibody; not shown: His-tag
The description is as above.

The target in test [9] is T10, IL-5 mutant 96F to Alanine, with His-tag (human, UniProt P05113 20-134).
T10 construct: Expressed transiently in HEK293E; used from the supernatant, captured by a murine anti-His antibody; not shown: His-tag
Described as above.

In test [10] the target is T11, IL-5 mutant 104L to Alanine, with His-tag (human, UniProt P05113 20-134).
T11 construct: Expressed transiently in HEK293E; used from the supernatant, captured by a murine anti-His antibody; not shown: His-tag
Described as above.

Test [11] concerns the target T2, human IL-5-hFc. Briefly: blocking ELISA: plate coated with IL-5-hFc, antibody dilutions mixed with biotinylated IL-5RA-ECD-hFc (the blocked ligand), Streptavidin-HRP, OD450. As for the experimental part:
as §1

For a further test, the target named is T12, rabbit IL-5 with His-tag (rabbit, UniProt G1SL79 20-134).
T12 construct: Expressed transiently in HEK293E and captured from the supernatant by a murine anti-His antibody
T12 sequence: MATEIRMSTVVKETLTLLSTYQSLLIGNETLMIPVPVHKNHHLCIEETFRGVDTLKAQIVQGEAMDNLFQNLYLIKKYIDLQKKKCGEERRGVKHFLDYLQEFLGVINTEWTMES
In words: ELISA, His-tagged IL-5 captured by anti-His antibody.
Source text: as §2

B1: chimeric antibody No. 4-6 (4-6-Chimeric) (antibody, human IgG1, V domains shown)
VH: QVQLQQSGAELVRPGASVKISCKAFGYTFTNHHINWVQQRPGQGLDWIGYINPYNDYSRYNQKFKGKATLTVDKSSSTAYMELSGLTSEDSAVYYCARDYGNFWYFDVWGAGTTVTVSS
VL: DIKMTQSPSSMYASLGERVTITCKASQDINSYLSWIQQKPGKSPKTLIHRADRLIDGVPSRFSGSGSGQDFSLTISSLEYEDMGIYYCLQYDDFPYTFGGGTKLEIK
Turning to B1, the “IC50 for inhibiting IL-5-induced TF-1 cell proliferation (4-6-Chimeric)” value in test [1] was determined as 28.9 ng/mL. In test [2], this molecule displayed a Kd of 0.013 nM, a koff of 0.000196 s⁻¹ and an on-rate (kon) of 1.51e+07 M⁻¹ s⁻¹. Further, in the test with human IL-5-hFc [3], the IC50 is 0.98 µg/mL.

B2: hu39D10 (antibody, V domains shown)
VH: EVQLVESGGGLVQPGGSLRLSCAVSGLSLTSNSVNWIRQAPGKGLEWVGLIWSNGDTDYNSAIKSRFTISRDTSKSTVYLQMNSLRAEDTAVYYCAREYYGYFDYWGQGTLVTVSS
VL: DIQMTQSPSSLSASVGDRVTITCLASEGISSYLAWYQQKPGKAPKLLIYGANSLQTGVPSRFSGSGSATDYTLTISSLQPEDFATYYCQQSYKFPNTFGQGTKVEVKR
B2: in [1], the “IC50 for inhibiting IL-5-induced TF-1 cell proliferation (hu39D10)” value came to 47.6 ng/mL. The half-maximal effective concentration (EC50) in the test with rat IL-5 with His-tag came to 0.132 µg/mL; in test [4] it was 0.078 µg/mL; with mouse IL-5 with His-tag it was 0.0618 µg/mL; in test [5], 0.0531 µg/mL. Further, in test [2], the affinity, expressed as Kd, was 0.0136 nM. In test [2], this molecule returned a koff of 0.000156 s⁻¹. The molecule also had an on-rate constant (kon) in test [2] of 1.15e+07 M⁻¹ s⁻¹. Besides, the OD450 in [6] came to 0.13; in test [7], 0.499; in test [8] it was 0.171; in test [9], 0.456; in test [10] it was 0.11.

B3: control antibody 4-4-Humanized (antibody, human IgG1, V domains shown)
VH: QVQLVQSGAEVKKPGASVKVSCKASGYTFTDYYINWLRQAPGQGLEWIGWIYPGSGNTKYSEKFKDRATLTVDTSTSTVYMELSSLRSEDTAVYVCVRDGYYWYFDVWGQGTLVTVSS
VL: DIVMTQSPDSLAVSLGERATINCKSSQSLLNNYNQKNYLAWYQQKPGQPPKLLVYFTSTRESGVPDRFSGSGSGTDFTLTISSLQAEDVAVYFCQQHYSPPFTFGQGTKVEIK
For the molecule B3, the “IC50 (read off the curve)” value in the test with human IL-5-hFc [11] was roughly 4000 ng/mL.

B4: humanized antibody No. 4-6 (4-6-Humanized) (antibody, human IgG1, kappa, V domains shown)
VH: QVQLVQSGAEVKKPGASVKVSCKASGYTFTNHHINWVRQAPGQGLEWIGYINPYNDYSRYNQKFKGRATLTVDKSTSTAYMELSSLRSEDTAVYYCARDYGNFWYFDVWGQGTLVTVSS
VL: DIQMTQSPSSLSASVGDRVTITCKASQDINSYLSWIQQKPGKAPKTLIHRADRLIDGVPSRFSGSGSGQDFTLTISSLQPEDFATYYCLQYDDFPYTFGQGTKVEIKR
notes: Human IgG1; Made in HEK293; also called 4-6-Humanized (293); 4-6-Humanized (CHO)
Consider B4, for which the binding result with rabbit IL-5 with His-tag is “no binding”. The EC50 with rat IL-5 with His-tag was 2.13 µg/mL; in the test with mouse IL-5 with His-tag, 0.0521 µg/mL; in test [5] it was 0.0558 µg/mL.
